Experimental data: patent US20210246507A1

Biological target: human C3b (human) (UniProt P01024)
Experiment: SPR (Biacore 3000), human C3b amine-coupled to CM5 chip, FHR-4 injected at 1 to 100 µg/ml, 1:1 Langmuir fit

Sequence of UniProt P01024 (P01024 23-667 limits assumed, chain 1 of 2): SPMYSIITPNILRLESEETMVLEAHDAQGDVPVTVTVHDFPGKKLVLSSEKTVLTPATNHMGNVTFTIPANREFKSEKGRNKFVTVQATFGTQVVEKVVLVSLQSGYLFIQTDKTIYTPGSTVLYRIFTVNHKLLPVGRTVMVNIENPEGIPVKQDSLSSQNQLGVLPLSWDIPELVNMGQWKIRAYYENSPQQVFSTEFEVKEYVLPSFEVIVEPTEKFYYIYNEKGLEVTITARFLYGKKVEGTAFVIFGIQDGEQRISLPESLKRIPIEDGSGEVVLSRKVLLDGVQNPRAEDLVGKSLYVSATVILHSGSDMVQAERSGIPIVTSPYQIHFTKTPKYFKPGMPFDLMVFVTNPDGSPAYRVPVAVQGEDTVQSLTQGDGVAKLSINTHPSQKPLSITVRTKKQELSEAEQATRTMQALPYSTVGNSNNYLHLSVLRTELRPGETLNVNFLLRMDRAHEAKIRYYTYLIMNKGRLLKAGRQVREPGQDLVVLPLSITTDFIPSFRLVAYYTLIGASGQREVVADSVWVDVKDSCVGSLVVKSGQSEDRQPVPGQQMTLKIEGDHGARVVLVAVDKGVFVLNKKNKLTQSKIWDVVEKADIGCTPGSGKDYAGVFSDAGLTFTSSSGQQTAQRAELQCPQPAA
Sequence of UniProt P01024 (P01024 749-1663 limits assumed, chain 2 of 2): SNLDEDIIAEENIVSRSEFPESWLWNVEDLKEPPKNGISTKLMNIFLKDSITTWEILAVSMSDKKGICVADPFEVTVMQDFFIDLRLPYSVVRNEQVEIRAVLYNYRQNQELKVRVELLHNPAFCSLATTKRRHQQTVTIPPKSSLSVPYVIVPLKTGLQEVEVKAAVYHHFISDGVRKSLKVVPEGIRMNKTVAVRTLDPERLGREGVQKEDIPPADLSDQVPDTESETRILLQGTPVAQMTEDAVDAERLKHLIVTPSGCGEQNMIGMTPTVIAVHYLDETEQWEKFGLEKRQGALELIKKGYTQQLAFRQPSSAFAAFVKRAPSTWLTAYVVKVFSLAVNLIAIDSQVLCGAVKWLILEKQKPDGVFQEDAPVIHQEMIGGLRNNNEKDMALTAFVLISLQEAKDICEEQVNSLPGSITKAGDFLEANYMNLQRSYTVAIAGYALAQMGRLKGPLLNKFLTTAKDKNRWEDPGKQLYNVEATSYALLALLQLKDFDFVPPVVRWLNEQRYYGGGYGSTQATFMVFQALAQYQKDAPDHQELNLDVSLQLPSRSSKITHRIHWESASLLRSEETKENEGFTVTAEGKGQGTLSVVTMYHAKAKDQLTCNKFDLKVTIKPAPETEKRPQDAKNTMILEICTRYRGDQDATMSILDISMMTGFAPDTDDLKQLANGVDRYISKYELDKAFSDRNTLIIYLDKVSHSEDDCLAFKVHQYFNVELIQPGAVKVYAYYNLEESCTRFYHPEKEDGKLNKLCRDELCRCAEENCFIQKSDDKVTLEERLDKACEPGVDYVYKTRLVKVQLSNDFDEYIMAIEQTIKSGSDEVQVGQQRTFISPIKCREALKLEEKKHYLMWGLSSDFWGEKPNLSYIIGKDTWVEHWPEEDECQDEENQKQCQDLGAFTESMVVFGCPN

Substance: complement factor H-related protein 4 (FHR-4) (from UniProt Q92496 20-578)
- Kd: 1100 nM
